Assay results reported in US20220306758A1 (Regeneron, published 2022).

T1: human BCMA on cells (endogenous, on multiple myeloma and lymphoma cell lines) (human, UniProt Q02223 1-184)
T1 sequence: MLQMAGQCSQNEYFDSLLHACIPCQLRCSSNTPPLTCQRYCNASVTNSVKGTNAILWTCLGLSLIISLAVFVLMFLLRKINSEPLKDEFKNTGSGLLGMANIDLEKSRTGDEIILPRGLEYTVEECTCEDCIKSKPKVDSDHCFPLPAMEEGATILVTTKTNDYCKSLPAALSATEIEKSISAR

T2: mouse BCMA-MFC (BCMA with C-terminal mFc tag) (mouse)
T2 construct: Tested at 30 nM only
T2 chain: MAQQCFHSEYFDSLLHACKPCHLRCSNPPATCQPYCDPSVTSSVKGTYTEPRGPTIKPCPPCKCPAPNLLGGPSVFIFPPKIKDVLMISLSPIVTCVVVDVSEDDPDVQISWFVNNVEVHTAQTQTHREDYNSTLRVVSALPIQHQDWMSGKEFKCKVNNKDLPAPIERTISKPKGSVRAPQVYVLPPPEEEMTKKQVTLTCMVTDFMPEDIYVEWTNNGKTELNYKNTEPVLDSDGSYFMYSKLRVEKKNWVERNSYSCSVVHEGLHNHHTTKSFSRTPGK

T3: human BCMA-MMH (extracellular domain of human BCMA with C-terminal myc-myc-hexahistidine tag) (human)
T3 construct: Monomeric antigen; the entry holds the ectodomain and the myc-myc-His tag; also called hBCMA.mmh; hBCMA.mmH
T3 chain: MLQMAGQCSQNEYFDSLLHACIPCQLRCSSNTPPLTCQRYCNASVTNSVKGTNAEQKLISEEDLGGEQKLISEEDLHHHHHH

T4: human BCMA-MFC (extracellular domain of human BCMA with C-terminal mFc tag) (human)
T4 construct: also called hBCMA.mFc
T4 chain: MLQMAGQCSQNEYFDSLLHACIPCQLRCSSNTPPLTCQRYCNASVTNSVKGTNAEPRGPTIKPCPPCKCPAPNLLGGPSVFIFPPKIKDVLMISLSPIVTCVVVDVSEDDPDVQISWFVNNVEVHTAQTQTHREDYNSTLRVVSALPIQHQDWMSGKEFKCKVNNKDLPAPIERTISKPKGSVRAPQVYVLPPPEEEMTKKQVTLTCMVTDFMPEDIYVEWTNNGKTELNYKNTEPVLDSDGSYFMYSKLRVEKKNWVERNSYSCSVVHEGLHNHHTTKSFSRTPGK


Legend:
[1] = target: T1, human BCMA on cells (endogenous, on …); experiment: cell-based or functional assay
[2] = target: T1, human BCMA on cells (endogenous, on …); experiment: cell-based or functional assay; remark: listed apart in the source
[3] = target: T1, human BCMA on cells (endogenous, on …); experiment: cell-based or functional assay; remark: listed apart in the source
[4] = target: T5, monkey BCMA-MFC (monkey BCMA with C-terminal mFc tag) (monkey); experiment: SPR, Biacore, mAb captured by anti-hFc, 25 C
T5 construct: also called mfBCMA.mFc
Experimental: (§1) The CM5 Biacore sensor surface was derivatized by amine coupling with a monoclonal mouse anti-human Fc antibody (GE, #BR-1008-39) to capture purified anti-BCMA mAbs and anti-BCMA×anti-CD3 bispecific mAbs. All Biacore binding studies were performed in a buffer composed of 0.01M HEPES pH 7.4, 0.15M NaCl, 3 mM EDTA, 0.05% v/v Surfactant P20 (HBS-ET running buffer). […] Antigen samples were then injected over the anti-BCMA and anti-BCMA×anti-CD3 bispecific mAbs captured surfaces at a flow rate of 30 μL/minute. Antibody-reagent association was monitored for 5 minutes while dissociation in HBS-ET running buffer was monitored for 10 minutes. All of the binding kinetics experiments were performed at 25° C. Kinetic association (kₐ) and dissociation (kd) rate constants were determined by fitting the real-time sensorgrams to a 1:1 binding model using Scrubber 2.0c curve fitting software. Binding dissociation equilibrium constants (KD) and dissociative half-lives (t½) were calculated from the kinetic rate constants as: […]

[5] = target: T2, mouse BCMA-MFC (BCMA with C-terminal …); experiment: SPR, Biacore, mAb captured by anti-hFc, 25 C
Experimental: as §1

[6] = target: T3, human BCMA-MMH (extracellular domain of …); experiment: SPR, Biacore, mAb captured by anti-hFc, 25 C
Experimental: as §1

[7] = target: T4, human BCMA-MFC (extracellular domain of …); experiment: SPR, Biacore, mAb captured by anti-hFc, 25 C
Experimental: as §1

[8] = target: T6, monkey BCMA-MMH (monkey BCMA with C-terminal myc-myc-hexahistidine tag) (monkey); experiment: SPR, Biacore, mAb captured by anti-hFc, 25 C
T6 construct: The words 'extracellular domain' stand before human BCMA in the sentence and are read as applying to the monkey construct too; also called mfBCMA.mmh
Experimental: as §1

T5 sequence (chain, as listed by the source limits assumed): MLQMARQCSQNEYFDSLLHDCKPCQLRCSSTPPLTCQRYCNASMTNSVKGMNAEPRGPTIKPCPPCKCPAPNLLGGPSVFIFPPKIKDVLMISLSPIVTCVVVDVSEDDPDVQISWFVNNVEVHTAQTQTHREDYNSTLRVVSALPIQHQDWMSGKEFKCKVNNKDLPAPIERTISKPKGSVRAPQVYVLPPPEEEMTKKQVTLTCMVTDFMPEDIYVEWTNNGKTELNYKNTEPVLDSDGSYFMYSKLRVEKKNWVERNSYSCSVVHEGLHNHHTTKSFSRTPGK
T6 sequence (chain, as listed by the source limits assumed): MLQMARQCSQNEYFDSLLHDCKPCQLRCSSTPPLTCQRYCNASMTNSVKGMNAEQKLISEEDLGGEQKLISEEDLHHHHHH

Binder | EC50 of NFAT-luciferase activity, Jurkat/NFATLuc reporter cells with MOLP-8 cells [1] [nM] | EC50 of NFAT-luciferase activity, Jurkat/NFATLuc reporter cells with RPMI-8226 cells [1] [nM] | EC50 of NFAT-luciferase activity, Jurkat/NFATLuc reporter cells with Raji cells [1] [nM] | median EC50 of % Survival, H929 target cells, human effector cells (FACS cytotoxicity) [2] [nM] | median EC50 of % Survival, MM1S target cells, human effector cells (FACS cytotoxicity) [2] [nM] | median EC50 of % Survival, U266 target cells, human effector cells (FACS cytotoxicity) [2] [nM] | median EC50 of % T activation (CD25 on CD8+ T cells), H929 target cells, human effector cells [2] [nM] | median EC50 of % T activation (CD25 on CD8+ T cells), MM1S target cells, human effector cells [2] [nM] | median EC50 of % T activation (CD25 on CD8+ T cells), U266 target cells, human effector cells [2] [nM] | median EC50 of % Survival, H929 target cells, cynomolgus effector cells (FACS cytotoxicity) [3] [nM] | median EC50 of % T activation, H929 target cells, cynomolgus effector cells [3] [nM] | 30 nM mfBCMA.mFc Bind (RU) [4] [RU] | Kd [4] [nM] | koff [4] [s⁻¹] | kon [4] [M⁻¹ s⁻¹] | t½ [4] [min] | 30 nM mfBCMA.mFc Bind (RU) (mouse BCMA-MFC by the table's title) [5] | binding result [5] | 90 nM hBCMA.mmh Bind (RU) [6] [RU] | Kd [6] [nM] | also measured
REGN5458 (bsAb25441D), anti-BCMA x anti-CD3 bispecific antibody (bispecific antibody, V domains shown, Two different heavy chains paired with a common light chain; human Fc (captured by anti-human Fc in SPR); also called bsAb25441D9; mAb25441D) VH 1: EVQLVESGGGLVQPGGSLRLSCAASGFTFSNFWMTWVRQAPGKGLEWVANMNQDGSEKYYVDSVKGRFTISRDNAKSSLYLQMNSLRAEDTAVYYCARDREYCISTSCYDDFDYWGQGTLVTVSS VH 2: EVQLVESGGGLVQPGRSLRLSCAASGFTFDDYSMHWVRQAPGKGLEWVSGISWNSGSKGYADSVKGRFTISRDNAKNSLYLQMNSLRAEDTALYYCAKYGSGYGKFYHYGLDVWGQGTTVTVSS VL: not shown | 1.4 | 0.61 | 1.6 | 0.103 | 0.0646 | 0.328 | 0.211 | 0.0706 | 0.107 | 0.0234 | 0.0683 | 108 | 0.167 | 8.8e-05 | 528000 | 131 | 2.7 | no binding (tested: 30 nM) | 19.9 | 1.06 | koff [6]: 0.000874 s⁻¹; kon [6]: 827000 M⁻¹ s⁻¹; t½ [6]: 13.2 min; 30 nM hBCMA.mFc Bind (RU) [7]: 107 RU; Kd [7]: ≤ 0.0223 nM; koff [7]: ≤ 1e-05 s⁻¹; kon [7]: 448000 M⁻¹ s⁻¹; t½ [7]: ≤ 1160 min; 90 nM mfBCMA.mmh Bind (RU) [8]: 14.8 RU; Kd [8]: 49.9 nM; koff [8]: 0.00909 s⁻¹; kon [8]: 182000 M⁻¹ s⁻¹; t½ [8]: 1.3 min
REGN5459 (bsAb25442D), anti-BCMA x anti-CD3 bispecific antibody (bispecific antibody, V domains shown, also called mAb25442D; mAb25442D-A647) VH 1: EVQLVESGGGLVQPGGSLRLSCAASGFTFSNFWMTWVRQAPGKGLEWVANMNQDGSEKYYVDSVKGRFTISRDNAKSSLYLQMNSLRAEDTAVYYCARDREYCISTSCYDDFDYWGQGTLVTVSS VH 2: EVQLVESGGGLVQPGRSLRLSCAASGFTFDDYSMHWVRQAPGKGLEWVSGISWNSGSIGYADSVKGRFTISRDNAKNSLYLQMNSLRAEDTALYYCAKYGSGYGKFYYYGMDVWGQGTTVTVSS VL: not shown | 11 | 2.6 | 7.4 | 0.301 | 0.288 | 1.66 | 0.3 | 0.458 | 0.469 | 0.0692 | 0.158 | 97 | 0.148 | 7.15e-05 | 482000 | 162 | 2.4 | no binding (tested: 30 nM) | 17 | 1.38 | koff [6]: 0.00101 s⁻¹; kon [6]: 730000 M⁻¹ s⁻¹; t½ [6]: 11.5 min; 30 nM hBCMA.mFc Bind (RU) [7]: 96.8 RU; Kd [7]: ≤ 0.0223 nM; koff [7]: ≤ 1e-05 s⁻¹; kon [7]: 449000 M⁻¹ s⁻¹; t½ [7]: ≤ 1160 min; 90 nM mfBCMA.mmh Bind (RU) [8]: 12.7 RU; Kd [8]: 38.8 nM; koff [8]: 0.00864 s⁻¹; kon [8]: 223000 M⁻¹ s⁻¹; t½ [8]: 1.3 min
